± gives the uncertainty stated by the source.
B1: Zinc finger MYM-type protein 3, residues 405 to 444; numbered along this chain, Q14202 (parent)
chain: DATRCSICQKTGEVLHEVSNGSVVHRLCSDSCFSKFRANK

Variants of: B1
Assay: abundance fitness (aPCA) (normalised: wild type 0, dead -1); higher = more abundant; growth selection in yeast, the domain comes from the species named
Conditions: Homo sapiens

With DATRCSICQKTGEVLHEVSNGSVVHRLRSDSCFSKFRANK [C28R] as the variant, how does the abundance fitness read?
Its abundance fitness is -0.873 ± 0.061.

Which abundance fitness does the source give for DATRCSICQKTGEVLHEVSNGSVVHRLESDSCFSKFRANK [C28E] here?
Its abundance fitness is -0.576 ± 0.069.

Which abundance fitness does the source give for DATRCSICQKTGEVLHEVSNGSVVHRLCSDTCFSKFRANK [S31T] here?
Its abundance fitness is 0.027 ± 0.082.

Which abundance fitness does the source give for DATRCSICQKTGEVLHEVSNGSVVHRLCSDICFSKFRANK [S31I] here?
The abundance fitness was 0.064 ± 0.15.

Which abundance fitness does the source give for DATRCSICQKTGEVLHEVSNGSVVHRLCSDLCFSKFRANK [S31L] here?
Its abundance fitness is -0.022 ± 0.059.

With DATRCSICQKTGEVLHEVSNGSVVHRLCSDSCPSKFRANK [F33P] as the variant, how does the abundance fitness read?
The abundance fitness was -0.186 ± 0.074.

For DATRCSICQKTGEVLLEVSNGSVVHRLCSDSCFSKFRANK [H16L], which abundance fitness is on record?
The abundance fitness was -0.645 ± 0.057.

With DATRCSICQKTGEVLMEVSNGSVVHRLCSDSCFSKFRANK [H16M] as the variant, how does the abundance fitness read?
Its abundance fitness is -0.551 ± 0.074.

For DATRCSICQKTGEVLCEVSNGSVVHRLCSDSCFSKFRANK [H16C], which abundance fitness is on record?
The abundance fitness was -1.09 ± 0.17.

For DATRCSICQKTGEVLHEVSNGSVVHRLCSDSCFSKFRANY [K40Y], which abundance fitness is on record?
The abundance fitness was -0.072 ± 0.45.

Which abundance fitness does the source give for DATRCSICQKTGEVLHEVSNGSVVHRLCSDSCFSKFRANT [K40T] here?
The abundance fitness was 0.138 ± 0.066.

Which abundance fitness does the source give for DATRCSICQKTGEVLHEVSNGSVVHRLCSESCFSKFRANK [D30E] here?
The abundance fitness was -0.041 ± 0.066.

For DATRCSICQKTGEVLHEVSNGSVVHRLCSISCFSKFRANK [D30I], which abundance fitness is on record?
The abundance fitness was -0.734 ± 0.21.

Which abundance fitness does the source give for DATRCSICQKTGEVLHEVSNGSVVHRLCSNSCFSKFRANK [D30N] here?
The abundance fitness was -0.721 ± 0.31.

For DATRCSICQKTGEVLHEVSNGSVVHRLCSKSCFSKFRANK [D30K], which abundance fitness is on record?
The abundance fitness was -0.109 ± 0.096.

Which abundance fitness does the source give for DATRCYICQKTGEVLHEVSNGSVVHRLCSDSCFSKFRANK [S6Y] here?
Its abundance fitness is 0.052 ± 0.073.

For DATRCFICQKTGEVLHEVSNGSVVHRLCSDSCFSKFRANK [S6F], which abundance fitness is on record?
The abundance fitness was -0.012 ± 0.078.

For DATRCSIEQKTGEVLHEVSNGSVVHRLCSDSCFSKFRANK [C8E], which abundance fitness is on record?
Its abundance fitness is -0.85 ± 0.074.

For DATRCSISQKTGEVLHEVSNGSVVHRLCSDSCFSKFRANK [C8S], which abundance fitness is on record?
The abundance fitness was -0.927 ± 0.081.

With DATRCSTCQKTGEVLHEVSNGSVVHRLCSDSCFSKFRANK [I7T] as the variant, how does the abundance fitness read?
Its abundance fitness is -0.218 ± 0.077.

For DATRCSFCQKTGEVLHEVSNGSVVHRLCSDSCFSKFRANK [I7F], which abundance fitness is on record?
Its abundance fitness is -0.13 ± 0.12.

With DAYRCSICQKTGEVLHEVSNGSVVHRLCSDSCFSKFRANK [T3Y] as the variant, how does the abundance fitness read?
The abundance fitness was -0.025 ± 0.075.

Which abundance fitness does the source give for DACRCSICQKTGEVLHEVSNGSVVHRLCSDSCFSKFRANK [T3C] here?
Its abundance fitness is -0.726 ± 0.1.

For DAFRCSICQKTGEVLHEVSNGSVVHRLCSDSCFSKFRANK [T3F], which abundance fitness is on record?
Its abundance fitness is -0.181 ± 0.078.

For DAWRCSICQKTGEVLHEVSNGSVVHRLCSDSCFSKFRANK [T3W], which abundance fitness is on record?
Its abundance fitness is -0.085 ± 0.058.

For DAKRCSICQKTGEVLHEVSNGSVVHRLCSDSCFSKFRANK [T3K], which abundance fitness is on record?
The abundance fitness was 0.272 ± 0.057.

For DATRCSICQETGEVLHEVSNGSVVHRLCSDSCFSKFRANK [K10E], which abundance fitness is on record?
Its abundance fitness is -0.088 ± 0.063.

With DATRCSICQGTGEVLHEVSNGSVVHRLCSDSCFSKFRANK [K10G] as the variant, how does the abundance fitness read?
Its abundance fitness is -0.09 ± 0.052.

For DATRCSICQKTGEVLHECSNGSVVHRLCSDSCFSKFRANK [V18C], which abundance fitness is on record?
Its abundance fitness is -0.201 ± 0.075.

For DATRCSICQKTGEVLHENSNGSVVHRLCSDSCFSKFRANK [V18N], which abundance fitness is on record?
The abundance fitness was -0.358 ± 0.094.

Which abundance fitness does the source give for DATRCSICQKTGEVLHEGSNGSVVHRLCSDSCFSKFRANK [V18G] here?
Its abundance fitness is -0.42 ± 0.055.

With DATRCSICQKTGEVLHERSNGSVVHRLCSDSCFSKFRANK [V18R] as the variant, how does the abundance fitness read?
Its abundance fitness is -0.334 ± 0.055.

Which abundance fitness does the source give for DATRCSICQKTGEVLHHVSNGSVVHRLCSDSCFSKFRANK [E17H] here?
The abundance fitness was -0.285 ± 0.097.

Which abundance fitness does the source give for DATRCSICQKTGEVLHSVSNGSVVHRLCSDSCFSKFRANK [E17S] here?
Its abundance fitness is -0.192 ± 0.057.

Which abundance fitness does the source give for DATRCSICQKTGEVLHIVSNGSVVHRLCSDSCFSKFRANK [E17I] here?
The abundance fitness was -0.458 ± 0.091.

For DATRCSICQKTGEVLHGVSNGSVVHRLCSDSCFSKFRANK [E17G], which abundance fitness is on record?
The abundance fitness was -0.594 ± 0.055.

With DATRCSICQKTGEVLHEVSNGSVVHRLCSDSCFSKSRANK [F36S] as the variant, how does the abundance fitness read?
Its abundance fitness is -0.178 ± 0.064.

Which abundance fitness does the source give for DATRCSICQKTGEVLHEVSNGSVVHRLCSDSCFSKTRANK [F36T] here?
The abundance fitness was -0.176 ± 0.07.

With DATRCSICQKTGEVLHEVSNGSVVHRLCSDSCFSKMRANK [F36M] as the variant, how does the abundance fitness read?
Its abundance fitness is -0.296 ± 0.39.

With DETRCSICQKTGEVLHEVSNGSVVHRLCSDSCFSKFRANK [A2E] as the variant, how does the abundance fitness read?
The abundance fitness was -0.013 ± 0.063.

For DCTRCSICQKTGEVLHEVSNGSVVHRLCSDSCFSKFRANK [A2C], which abundance fitness is on record?
Its abundance fitness is 0.305 ± 0.071.

With DMTRCSICQKTGEVLHEVSNGSVVHRLCSDSCFSKFRANK [A2M] as the variant, how does the abundance fitness read?
The abundance fitness was 0.48 ± 0.064.

For DATRCSICQKTGEVLHEVSNGSVVHTLCSDSCFSKFRANK [R26T], which abundance fitness is on record?
The abundance fitness was -0.048 ± 0.065.

With DATRCSICQKTGEVTHEVSNGSVVHRLCSDSCFSKFRANK [L15T] as the variant, how does the abundance fitness read?
Its abundance fitness is -0.141 ± 0.065.

With DATRCSICQKTGEVLHEVSNGSVVHRLCSDSCFCKFRANK [S34C] as the variant, how does the abundance fitness read?
Its abundance fitness is -0.729 ± 0.098.

For DATRCSICQKTGEVLHEVSNGSVVHRLCSDSCFKKFRANK [S34K], which abundance fitness is on record?
The abundance fitness was 0.206 ± 0.068.

For DATRCSICQKTGEVLHEVSNGAVVHRLCSDSCFSKFRANK [S22A], which abundance fitness is on record?
The abundance fitness was -0.109 ± 0.06.

For DATRCSICQKTGEVLHEVSNGWVVHRLCSDSCFSKFRANK [S22W], which abundance fitness is on record?
The abundance fitness was -0.419 ± 0.076.

With DATRCSICQKTGEVLHEVSNGNVVHRLCSDSCFSKFRANK [S22N] as the variant, how does the abundance fitness read?
Its abundance fitness is 0.029 ± 0.094.

For DATRCSICQKHGEVLHEVSNGSVVHRLCSDSCFSKFRANK [T11H], which abundance fitness is on record?
Its abundance fitness is 0.088 ± 0.12.

For DATRCSICQKTGEVLHEVSNSSVVHRLCSDSCFSKFRANK [G21S], which abundance fitness is on record?
Its abundance fitness is -0.193 ± 0.064.

With NATRCSICQKTGEVLHEVSNGSVVHRLCSDSCFSKFRANK [D1N] as the variant, how does the abundance fitness read?
The abundance fitness was 0.142 ± 0.13.

Which abundance fitness does the source give for MATRCSICQKTGEVLHEVSNGSVVHRLCSDSCFSKFRANK [D1M] here?
The abundance fitness was 0.112 ± 0.098.

Which abundance fitness does the source give for DATRCSICQKTGEELHEVSNGSVVHRLCSDSCFSKFRANK [V14E] here?
Its abundance fitness is -0.453 ± 0.073.

Which abundance fitness does the source give for DATRCSICQKTGECLHEVSNGSVVHRLCSDSCFSKFRANK [V14C] here?
The abundance fitness was -0.453 ± 0.087.

With DATRCSICQKTGEKLHEVSNGSVVHRLCSDSCFSKFRANK [V14K] as the variant, how does the abundance fitness read?
The abundance fitness was -0.43 ± 0.069.

With DATRCSICQKTHEVLHEVSNGSVVHRLCSDSCFSKFRANK [G12H] as the variant, how does the abundance fitness read?
The abundance fitness was -0.215 ± 0.079.

Which abundance fitness does the source give for DATRCSICQKTGEVLHEVSNGSVVHRLCCDSCFSKFRANK [S29C] here?
Its abundance fitness is -0.591 ± 0.077.

Which abundance fitness does the source give for DATRCSICQKTGEVLHEVSNGSVVHRLCDDSCFSKFRANK [S29D] here?
The abundance fitness was -0.404 ± 0.076.

Which abundance fitness does the source give for DATRCSICQKTGEVLHEVSNGSVVHRLCIDSCFSKFRANK [S29I] here?
The abundance fitness was -0.857 ± 0.13.

For DATRCSICQKTGEVLHEVSNGSVVHRLCRDSCFSKFRANK [S29R], which abundance fitness is on record?
Its abundance fitness is -0.684 ± 0.062.

For DATRCSICQKTGEVLHEVRNGSVVHRLCSDSCFSKFRANK [S19R], which abundance fitness is on record?
Its abundance fitness is -0.078 ± 0.051.

Which abundance fitness does the source give for DATRCSICQKTGEVLHEVINGSVVHRLCSDSCFSKFRANK [S19I] here?
Its abundance fitness is -0.11 ± 0.099.

With DATRCSICQKTGEVLHEVHNGSVVHRLCSDSCFSKFRANK [S19H] as the variant, how does the abundance fitness read?
The abundance fitness was -0.268 ± 0.08.

For DATRCSICQKTGEVLHEVDNGSVVHRLCSDSCFSKFRANK [S19D], which abundance fitness is on record?
The abundance fitness was -0.078 ± 0.072.

With DATRCSICQKTGEVLHEVKNGSVVHRLCSDSCFSKFRANK [S19K] as the variant, how does the abundance fitness read?
The abundance fitness was 0.176 ± 0.068.

For DATRCSICQKTGEVLHEVANGSVVHRLCSDSCFSKFRANK [S19A], which abundance fitness is on record?
The abundance fitness was -0.215 ± 0.058.

With DATRCSICAKTGEVLHEVSNGSVVHRLCSDSCFSKFRANK [Q9A] as the variant, how does the abundance fitness read?
Its abundance fitness is -0.585 ± 0.072.

For DATRCSICKKTGEVLHEVSNGSVVHRLCSDSCFSKFRANK [Q9K], which abundance fitness is on record?
Its abundance fitness is -0.05 ± 0.064.

With DATRCSICMKTGEVLHEVSNGSVVHRLCSDSCFSKFRANK [Q9M] as the variant, how does the abundance fitness read?
Its abundance fitness is -0.123 ± 0.08.

Which abundance fitness does the source give for DATRCSICTKTGEVLHEVSNGSVVHRLCSDSCFSKFRANK [Q9T] here?
Its abundance fitness is -0.195 ± 0.074.

For DATRCSICQKTGEVLHEVSNGSVVHRLCSDSIFSKFRANK [C32I], which abundance fitness is on record?
The abundance fitness was -0.587 ± 0.19.

With DATRCSICQKTGEVLHEVSNGSVVHRLCSDSTFSKFRANK [C32T] as the variant, how does the abundance fitness read?
The abundance fitness was -0.565 ± 0.1.

With DATRCSICQKTGEVLHEVSNGSVVHRLCSDSHFSKFRANK [C32H] as the variant, how does the abundance fitness read?
Its abundance fitness is -0.59 ± 0.11.

For DATRCSICQKTGEVLHEVSNGSVVHRLCSDSRFSKFRANK [C32R], which abundance fitness is on record?
The abundance fitness was -0.832 ± 0.071.

With DATRCSICQKTGEVLHEVSNGSVVHRLCSDSFFSKFRANK [C32F] as the variant, how does the abundance fitness read?
The abundance fitness was -0.968 ± 0.16.

Reference: the Human Domainome abundance scans (Beltran et al. 2025)
